Test results taken from patent publication US9682130B2 (priority 2015, dated 2017).
Where “and” joins values, the source holds several entries; their conditions need not be identical. Identical values can stand only once.

What was measured:
[1] = system: Human Adenovirus 5 (AD5 strain NYS #98-1836); test: Virus yield reduction assay, Adenovirus 5; type: cell-based
Method: (§1) The concentration of test compound required to inhibit CPE by 50% or reduce red uptake into cells by 50% (EC50) was calculated by regression analysis. The toxicity of the compound without virus present was similarly calculated using the uninfected wells treated with test compounds compared with untreated cell controls. The concentration of compound that would cause 50% cytotoxic effects in the absence of virus (CC50) was estimated by linear regression analysis. The selectivity index (SI) is the CC50 divided by EC50.
(§2) The virus yield reduction assay was used to determine actual virus amounts in the presence and absence of the test compound; this is the confirmatory assay for antiviral activity. […] Replicate wells of each compound concentration or control were pooled and frozen at −80° C. Samples were thawed and diluted by 10-fold serial dilutions. A 100 μL aliquot of each dilution was then plated onto 4 replicate wells of 96-well plates seeded with the applicable cells for each virus strain. Plates were incubated as noted above until viral CPE reached its endpoint, then each well was scored microscopically for the presence of viral CPE. The virus titer was determined based on the endpoint using the Reed-Muench method. […]

[2] = system: Human Adenovirus 8 (Ad8 strain 13306); test: Virus yield reduction assay, Adenovirus 8; type: cell-based
Method: as §1, §2

[3] = system: A549 cells; test: In vitro cytotoxicity, ALAMARBLUE fluorometric stain; type: cell-based; conditions: 2 days
Method: Ophthalmol. Vis. Sci. 50: 5295-5299 (2009), which is hereby incorporated by reference in its entirety.
To assess in vitro cytotoxicity, 96-well plates were seeded with A549 cells at 1×10^5 cells/mL and incubated overnight at 37° C. with 5% CO2. […] After removal of the tissue culture media, 100 μL of each dilution was added to 3 wells of a 96-well plate with 80% to 100% confluent cells. […] Each test and control treatment was incubated on the A549 monolayers for 2 days at 37° C. with 5% CO2. A 100 μL aliquot of the fluorometric stain was then added to each well, and the cells incubated for 1 hour at 37° C. with 5% CO2. The fluorometric stain (ALAMARBLUE®, Invitrogen, Carlsbad, Calif.) acts as a redox indicator that is reduced to a fluorescent form by metabolically active living cells. Fluorescence was then be read with a plate reader (Biotek Synergy 2; Biotek), with a 500/27-nm excitation filter and a 620/40-nm emission filter, at a sensitivity of 35.

[4] = system: Adenovirus serotype Ad5; test: Ad5/NZW rabbit ocular replication model, plaque assay of ocular samples; type: in vivo; conditions: for Ad5-positive ocular samples, percent, Day 1 / Ad5-positive ocular samples, percent, Day 3 / Ad5-positive ocular samples, percent, Day 4 / Ad5-positive ocular samples, percent, Day 5 / Ad5-positive ocular samples, percent, Day 7 / Ad5-positive ocular samples, percent, Day 11 / Ad5-positive ocular samples, percent, Day 14 / Ad5-positive ocular samples, percent, Total / Ad5-positive ocular samples/total eyes, Day 1 / Ad5-positive ocular samples/total eyes, Day 3 / Ad5-positive ocular samples/total eyes, Day 4 / Ad5-positive ocular samples/total eyes, Day 5 / Ad5-positive ocular samples/total eyes, Day 7 / Ad5-positive ocular samples/total eyes, Day 11 / Ad5-positive ocular samples/total eyes, Day 14 / Ad5-positive ocular samples/total eyes, Total: 8x daily 9 days
Method: See, e.g., Romanowski, et al., The In Vitro and In Vivo Evaluation of ddC as a Topical Antiviral for Ocular Adenovirus Infections, Invest. Ophthalmol. Vis. Sci. 50: 5295-5299 (2009), which is hereby incorporated by reference in its entirety.
To conduct this in vivo assay, 25 NZW rabbit were anesthetized using the general anesthesia ketamine and xylazine and the topical anesthesia proparacaine. Each rabbit was then topically inoculated with 50 μL of Adenovirus serotype Ad5 (3×10^7 pfu/mL) in both eyes after corneal epithelial scarification (12 cross-hatched strokes of a 25 sterile needle). Eyes were closed and gently rubbed for 5 seconds to ensure contact of the virus on all ocular surfaces. […] All topical solutions (37 μL drops) were instilled with an electronic pipette (EDP; Rainin, Oakland, Calif.) set in the multi-dispense mode. Ocular swabbing to recover adenovirus from tear film and corneal and conjunctival surfaces, after topical anesthesia with proparacaine, was performed at least 1 hour after the final dose on days 0, 1, 3, 4, 5, 7, 9, 11, and 14 after inoculation. The ocular samples from each eye was placed individually into tubes containing 1 mL of medium and were frozen at −70° C. pending viral plaque assay.
The ocular samples were assayed for Ad5 titers by performing a plaque reduction assay. Samples were diluted 1:10 and these dilutions were inoculated onto duplicate wells of a 24 well multi-plate containing A549 monolayers. The virus was adsorbed for 3 hours at 37° C. in a 5% CO2-water vapor atmosphere without constant rocking. After adsorption, 1 mL of medium plus 0.5% methylcellulose was added to each well, and the plates were incubated at 37° C. in a 5% CO2-water vapor atmosphere. After 7 days, the cells were stained with 0.5% gentian violet, and the number of plaques counted using a dissecting microscope (25×). The viral titers were then calculated, and will be expressed as plaque-forming units per milliliter (PFU/mL). Data from the study were analyzed using analysis of variance (ANOVA) with Fisher's pair-wise comparisons and X^2 analyses using True Epistat and/or Minitab statistical software. Significance was established at the P≦0.05 confidence level.

B1: Ranpirnase (protein, UniProt P22069 1-104, looked up)
Protein P-30: QDWLTFQKKHITNTRDVDCDNIMSTNLFHCKDKNTFIYSRPEPVKAICKGIIASKNVLTTSEFYLSDCNVTSRPCKYKLKKSTNKFCVTCENQAPVHFVGVGSC
notes: amphibian ribonuclease originally isolated from oocytes and/or early embryos of Rana pipiens; pancreatic ribonuclease (RNase A) superfamily, about 12 kD
Yield Reduction Assay EC50 [1]: 21.54 µg/mL
Yield Reduction Assay EC50 [2]: 25.1 µg/mL
% cytotoxicity, Mean ([3]; 0.001 μM, second experiment): 3.2%
% cytotoxicity ([3]; 0.001 μM, second experiment, single assays 1-3, 0.001 µM): 5.7% and 2.3% and 1.6%
% cytotoxicity, Mean ([3]; 0.01 μM, second experiment): 7.4%
% cytotoxicity ([3]; 0.01 μM, second experiment, single assays 1-3, 0.01 µM): 8.6% and 11.7% and 7.9%
% cytotoxicity, Mean ([3]; 0.1 μM, second experiment): 5.8%
% cytotoxicity ([3]; 0.1 μM, second experiment, single assays 1-3, 0.1 µM): 6.0% and 5.3% and 6.1%
% cytotoxicity ([3]; 1.0 μM, first experiment, single assays 1-3, 1 µM): 60.9% and 61.3% and 63.7%
% cytotoxicity ([3]; 1.0 μM, second experiment, single assays 1-3, 1 µM): 11.1% and 14.6% and 18.1%
% cytotoxicity ([3]; 10 μM, first experiment, single assays 1-3, 10 µM): 65.7% and 66.5% and 67.1%
% cytotoxicity ([3]; 10 μM, second experiment, single assays 1-3, 10 µM): 29.1% and 32.7% and 37.3%
% cytotoxicity ([3]; 50 μM, first experiment, single assays 1-3, 50 µM): 75.1% and 74.0%
% cytotoxicity ([3]; 50 μM, second experiment, single assays 1-3, 50 µM): 86.7% and 86.4%
Ad5-positive ocular samples, percent, Day 1 ([4]; 0.25 μM Ranpirnase (group 1C)): 100%
Ad5-positive ocular samples, percent, Day 3 ([4]; 0.25 μM Ranpirnase (group 1C)): 100%
Ad5-positive ocular samples, percent, Day 4 ([4]; 0.25 μM Ranpirnase (group 1C)): 100%
Ad5-positive ocular samples, percent, Day 5 ([4]; 0.25 μM Ranpirnase (group 1C)): 100%
Ad5-positive ocular samples, percent, Day 7 ([4]; 0.25 μM Ranpirnase (group 1C)): 88%
Ad5-positive ocular samples, percent, Day 11 ([4]; 0.25 μM Ranpirnase (group 1C)): 38%
Ad5-positive ocular samples, percent, Day 14 ([4]; 0.25 μM Ranpirnase (group 1C)): 0%
Ad5-positive ocular samples, percent, Total ([4]; 0.25 μM Ranpirnase (group 1C)): 76.7%
Ad5-positive ocular samples/total eyes, Day 1 ([4]; 0.25 μM Ranpirnase (group 1C)): 10/10
Ad5-positive ocular samples/total eyes, Day 3 ([4]; 0.25 μM Ranpirnase (group 1C)): 10/10
Ad5-positive ocular samples/total eyes, Day 4 ([4]; 0.25 μM Ranpirnase (group 1C)): 8/8
Ad5-positive ocular samples/total eyes, Day 5 ([4]; 0.25 μM Ranpirnase (group 1C)): 8/8
Ad5-positive ocular samples/total eyes, Day 7 ([4]; 0.25 μM Ranpirnase (group 1C)): 7/8
Ad5-positive ocular samples/total eyes, Day 11 ([4]; 0.25 μM Ranpirnase (group 1C)): 3/8
Ad5-positive ocular samples/total eyes, Day 14 ([4]; 0.25 μM Ranpirnase (group 1C)): 0/8
Ad5-positive ocular samples/total eyes, Total ([4]; 0.25 μM Ranpirnase (group 1C)): 46/60
Ad5-positive ocular samples, percent, Day 1 ([4]; 2.5 μM Ranpirnase (group 1B)): 100%
Ad5-positive ocular samples, percent, Day 3 ([4]; 2.5 μM Ranpirnase (group 1B)): 100%
Ad5-positive ocular samples, percent, Day 4 ([4]; 2.5 μM Ranpirnase (group 1B)): 100%
Ad5-positive ocular samples, percent, Day 5 ([4]; 2.5 μM Ranpirnase (group 1B)): 80%
Ad5-positive ocular samples, percent, Day 7 ([4]; 2.5 μM Ranpirnase (group 1B)): 70%
Ad5-positive ocular samples, percent, Day 11 ([4]; 2.5 μM Ranpirnase (group 1B)): 0%
Ad5-positive ocular samples, percent, Day 14 ([4]; 2.5 μM Ranpirnase (group 1B)): 0%
Ad5-positive ocular samples, percent, Total ([4]; 2.5 μM Ranpirnase (group 1B)): 64.3%
Ad5-positive ocular samples/total eyes, Day 1 ([4]; 2.5 μM Ranpirnase (group 1B)): 10/10
Ad5-positive ocular samples/total eyes, Day 3 ([4]; 2.5 μM Ranpirnase (group 1B)): 10/10
Ad5-positive ocular samples/total eyes, Day 4 ([4]; 2.5 μM Ranpirnase (group 1B)): 10/10
Ad5-positive ocular samples/total eyes, Day 5 ([4]; 2.5 μM Ranpirnase (group 1B)): 8/10
Ad5-positive ocular samples/total eyes, Day 7 ([4]; 2.5 μM Ranpirnase (group 1B)): 7/10
Ad5-positive ocular samples/total eyes, Day 11 ([4]; 2.5 μM Ranpirnase (group 1B)): 0/10
Ad5-positive ocular samples/total eyes, Day 14 ([4]; 2.5 μM Ranpirnase (group 1B)): 0/10
Ad5-positive ocular samples/total eyes, Total ([4]; 2.5 μM Ranpirnase (group 1B)): 45/70
Ad5-positive ocular samples, percent, Day 1 ([4]; 25 μM Ranpirnase (group 1A)): 100%
Ad5-positive ocular samples, percent, Day 3 ([4]; 25 μM Ranpirnase (group 1A)): 100%
Ad5-positive ocular samples, percent, Day 4 ([4]; 25 μM Ranpirnase (group 1A)): 100%
Ad5-positive ocular samples, percent, Day 5 ([4]; 25 μM Ranpirnase (group 1A)): 90%
Ad5-positive ocular samples, percent, Day 7 ([4]; 25 μM Ranpirnase (group 1A)): 30%
Ad5-positive ocular samples, percent, Day 11 ([4]; 25 μM Ranpirnase (group 1A)): 0%
Ad5-positive ocular samples, percent, Day 14 ([4]; 25 μM Ranpirnase (group 1A)): 0%
Ad5-positive ocular samples, percent, Total ([4]; 25 μM Ranpirnase (group 1A)): 60%
Ad5-positive ocular samples/total eyes, Day 1 ([4]; 25 μM Ranpirnase (group 1A)): 10/10
Ad5-positive ocular samples/total eyes, Day 3 ([4]; 25 μM Ranpirnase (group 1A)): 10/10
Ad5-positive ocular samples/total eyes, Day 4 ([4]; 25 μM Ranpirnase (group 1A)): 10/10
Ad5-positive ocular samples/total eyes, Day 5 ([4]; 25 μM Ranpirnase (group 1A)): 9/10
Ad5-positive ocular samples/total eyes, Day 7 ([4]; 25 μM Ranpirnase (group 1A)): 3/10
Ad5-positive ocular samples/total eyes, Day 11 ([4]; 25 μM Ranpirnase (group 1A)): 0/10
Ad5-positive ocular samples/total eyes, Day 14 ([4]; 25 μM Ranpirnase (group 1A)): 0/10
Ad5-positive ocular samples/total eyes, Total ([4]; 25 μM Ranpirnase (group 1A)): 42/70
Antiviral efficacy compared to the Saline (negative) control ([4]; 25, 2.5 and 0.25 μM Ranpirnase, Ad5/NZW rabbit ocular model): dose dependent antiviral efficacy
